{"source": "patent US11717557B2", "about": "“Use of PRG4 as an anti-inflammatory agent” (Lubris LLC, priority 2015, dated 2023)", "key": {"CD44": {"target": "T1, CD44 (Homo sapiens, UniProt P16070)", "T1 construct": "purchased R & D systems", "experiment": "Concentration-dependent binding to CD44, direct ELISA", "experimental": "High-binding microtiter plates (Corning, Sigma Aldrich, USA) were coated with rhPRG4 (Mr≅240 KDa), high molecular weight HA (HMW HA; Mr≈1,500 KDa) (R & D System, USA), medium molecular weight HA (MMW HA; Mr≈300 KDa) (R & D System) and vitronectin (Mr≅75 KDa) (Sigma Aldrich) at 400 μg/mL in PBS buffer (100 μL per well) overnight at 4° C. rhPRG4 is a full-length product produced by CHO-M cells (Lubris, Framingham, Mass., USA). Following washing with PBS+0.1% Tween 20, wells were blocked with 2% bovine serum albumin (BSA; 300 μL per well) for at least 2 hours at room temperature. CD44-IgG1Fc (R & D systems) or IgG1Fc (R & D systems), each at 1 μg/mL (100 μl per well), were added to the plate and incubated for 60 min at room temperature. Following washing with PBS+0.1% tween 20, anti-IgG1Fc-HRP (Sigma Aldrich) was added at 1:10,000 dilution (100 μL per well) and incubated for 60 min at room temp. Following washing with PBS+0.1% tween 20, the assay was developed using 1-step Turbo TMB ELISA reagent (ThermoScientific, USA) and absorbance was measured at 450 nm. The data represents an average of 4 independent assays, each with triplicate wells per group.\nThe concentration-dependent binding of rhPRG4, HMW HA and MMW HA to CD44 was performed by coating microtiter plates with 400, 200, 100, 20, 4, 2 and 0.1 μg/mL of the macromolecules. The assay was performed as described above. The absorbance values in the IgG1Fc wells were subtracted from the absorbance values in the CD44 IgG1Fc wells and the corrected CD44 IgG1Fc absorbance values were normalized to those of the 400 μg/mL rhPRG4 group and data was expressed as percentage binding to CD44. The concentration-dependent binding of rhPRG4, HMW HA and MMW HA to recombinant CD44 is depicted in FIG. 1B. […] The data represents an average of 4 independent assays, each with triplicate wells per group."}, "whole citrated blood": {"system": "whole citrated blood", "experiment": "Lubricin on LPS-mediated inflammatory cytokine generation in whole blood", "assay_type": "cell-based, human", "settings": "LPS 10 ng/mL then lubricin 0.57 mg/mL, versus LPS alone", "experimental": "The effect of lubricin on LPS-mediated inflammatory cytokine generation was studied using Biochip Array technology. In these studies LPS alone at 10 ng/mL and LPS pre-supplementation at 10 ng/mL followed by lubricin supplementation at 0.57 mg/mL were compared in the whole citrated blood for the generation of various inflammatory cytokines. All samples were incubated for 60 minutes and centrifuged to obtain plasma. This plasma was subsequently analyzed using the biochip array for inflammatory cytokines. LPS was supplemented to whole blood in a 1:10 dilution."}, "[1]": {"system": "NFκB nuclear translocation in RA-FLS", "experiment": "NFκB nuclear translocation after TNF-α stimulation of RA-FLS", "assay_type": "cell-based", "settings": "TNF-α 5 ng/mL; rhPRG4 200 μg/mL or MG 132 3 μM; 24 hours; p<0.001", "experimental": "RA-FLS (400,000 cells/well) were cultured and stimulated with TNF-α (5 ng/mL) and treated with rhPRG4 (200 μg/mL) or a commercially available NFκB translocation inhibitor MG 132 (3 μM; Tocris Bioscience) for 24 hours in serum free media. Cells were harvested and nuclear extraction was performed using a commercially available kit (Thermo scientific). Total protein was measured using a micro bicinchonic acid (BCA) kit (Thermo scientific) and 3 μg of nuclear extract of each experimental group were used. The p50 subunit of NFκB was detected in the nuclear extract using a commercially available NFκB DNA binding assay kit (Abcam). Data is presented as the number of fold change in NFκB nuclear levels compared to untreated control. To evaluate whether inhibition of NFκB translocation by rhPRG4 is CD44 dependent, the above experiment was repeated in the presence or absence of IM7 CD44 antibody (1:1,000 dilution). Data represents the average of 3 independent experiments with at least triplicate wells per treatment."}, "CD44 IgG1Fc": {"target": "T2, CD44 IgG1Fc (Homo sapiens, UniProt P16070)", "T2 construct": "purchased R & D systems", "experiment": "Surface plasmon resonance binding of rhPRG4 to CD44 and competition with HMW HA", "experimental": "Binding of rhPRG4 to CD44-IgG1Fc was investigated using surface plasmon resonance (Biacore T100, GE Healthcare Lifesciences, NJ, USA). Series S chips were functionalized using the human antibody capture kit (GE Life Sciences) and either CD44-IgG1Fc or IgG1FC was allowed to bind to the surface of the functionalized chips in flow cell 1 (Fc1) and flow cell 2 (Fc2), respectively. rhPRG4 was injected at 30 μL/min for 8 min at concentrations of 300, 250, 200, 150, 100 and 50 μg/mL followed by a 10 min dissociation using 0.1M HEPES, 1.5M NaCl, 30 mM EDTA, and 0.5% P20 (GE Life Sciences). The surface of the chip was regenerated at the end of each cycle with 1 min pulse of 3M MgCl2. Each analyte concentration was injected in duplicate. The resulting curves were double referenced (i.e. Fc2-Fc1, followed by subtraction of the 0 μg/mL curve). The binding kinetics and binding affinity were determined by BiaEvaluation software, using 1:1 binding/conformational change model or by steady-state equilibrium, respectively. To study the competition between rhPRG4 and HMW HA in binding to CD44, rhPRG4 was injected at concentrations ranging between 0 and 300 μg/mL as described above. Following the end of dissociation phase, HMW HA was injected at 50 μg/mL (30 μL per min) for 1 min. […]"}, "[2]": {"system": "normal synovial fluid cells", "experiment": "Cytokines secreted by normal synoviocytes (Luminex)", "assay_type": "cell-based, human", "settings": "rhPRG4 90 μg/mL, 24 hours, lubricin vs. PBS", "experimental": "Synovial fluid cells were obtained from normal and osteoarthritic (OA) patients and purified with CD90+ following an immune cell depletion. The cells were plated at 10,000 per well and suspended in media containing DMEM, heat-inactivated Hyclone FBS (10%), and Anti-Anti (1%). The assays contained the cell suspension (cells+ media) at 180 μL and the ligands at 20 μL for a total volume of 200 μL. Recombinant lubricin (rhPRG4) was then introduced to the cells at a concentration of 90 μg/mL and the negative control was PBS. The plate was then incubated at 37° C. at 5% CO2 for 24 hours, after which the supernatants were collected for cytokine analysis via the Luminex multiplex platform."}}, "data": [{"substance": "rhPRG4: full-length recombinant human PRG4 (lubricin) glycoprotein produced by CHO-M cells (Lubris), Mr≅240 KDa", "values": [{"measurement": "affinity of concentration-dependent binding to CD44", "setting": "CD44", "value": "comparable affinity to HMW HA"}, {"measurement": "percentage CD44 binding, difference between rhPRG4, HMW HA and MMW HA-coated wells", "setting": "CD44; coating 0.1 μg/mL", "value": "no significant differences"}, {"measurement": "percentage recombinant CD44 binding compared to MMW HA coated wells", "setting": "CD44; coating 200 μg/mL, p<0.001", "value": "significantly higher"}, {"measurement": "percentage recombinant CD44 binding compared to HMW HA or MMW HA-coated wells", "setting": "CD44; coating 400, 100, 20, 4 and 2 μg/mL, p<0.001", "value": "significantly higher"}, {"measurement": "IL-4, IL-6, IL-8, IL-10, VEGF, TNF-α, IL-1β, MCP-1 and EGF", "setting": "whole citrated blood; 60 minutes", "value": "decrease"}, {"measurement": "EGF, IL10, VEGF, MCP1, IL1b and TNF levels", "setting": "whole citrated blood", "value": "marked decrease"}, {"measurement": "NFκB nuclear translocation compared to TNF-α-treated RA-FLS", "setting": "[1]", "value": "significantly reduced"}, {"measurement": "Kd", "setting": "CD44 IgG1Fc; immobilized CD44-IgG1Fc, based on a rhPRG4 molecular weight of 240 KDa, read-out: apparent Kd", "value": "~38", "unit": "nM"}, {"measurement": "effect on binding of HMW HA to recombinant CD44", "setting": "CD44 IgG1Fc; rhPRG4 0-300 μg/mL, then HMW HA 50 μg/mL, inverse relationship of binding signals", "value": "interfered with binding of HMW HA"}, {"measurement": "cytokine response", "setting": "[2]", "value": "did not show any changes"}]}]}
